Data set [1] deals with T7 RNA polymerase, SNAPf fusion (T7 RNAP-SNAPf), freely diffusing (bacteriophage T7?). The following applies: Michaelis Km of transcription; 10 mM MgCl2, 37 C; Vmax 62 nM/s.
Data set [2] relates to T7 RNA polymerase, SNAPf fusion, anchored on DNA origami tile (T7-chip) (bacteriophage T7?). The conditions noted are these: apparent Michaelis Km of transcription for externally diffusing gene; 10 mM MgCl2, 37 C; Vmax 34 nM/s.

Consider “sfGFP gene with T7 promoter (942 nt transcript)”, for which the values for the K half in data set [1] and in data set [2] were 5.6 nM and 1010 nM, respectively.

For the origin of these results see patent publication US20200370136.
